The target of data set [1] is K. lactis Ndc10 DI–III (residues 1–534), purified (Kluyveromyces lactis). Nature of the data set: AUC.
The target in another data set is T1, Ndc10 DI-III (Kluyveromyces lactis, UniProt Q6CPM4 1-534).
T1 sequence: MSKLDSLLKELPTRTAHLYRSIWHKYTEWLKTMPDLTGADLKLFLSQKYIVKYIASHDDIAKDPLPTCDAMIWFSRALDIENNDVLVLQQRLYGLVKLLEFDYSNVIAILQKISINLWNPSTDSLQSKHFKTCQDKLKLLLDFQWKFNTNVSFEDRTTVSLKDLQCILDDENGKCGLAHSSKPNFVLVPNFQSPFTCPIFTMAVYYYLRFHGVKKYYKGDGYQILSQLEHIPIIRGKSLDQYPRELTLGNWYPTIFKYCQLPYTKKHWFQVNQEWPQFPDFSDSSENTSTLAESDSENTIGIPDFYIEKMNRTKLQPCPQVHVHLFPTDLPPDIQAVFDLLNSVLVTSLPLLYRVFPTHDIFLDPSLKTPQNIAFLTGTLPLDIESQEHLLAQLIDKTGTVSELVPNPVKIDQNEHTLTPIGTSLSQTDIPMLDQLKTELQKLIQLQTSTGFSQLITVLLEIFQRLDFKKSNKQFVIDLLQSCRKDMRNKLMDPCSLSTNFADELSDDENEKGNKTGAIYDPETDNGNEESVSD
Kind of data set: EMSA. For orientation: Mobility shift assays separate free from complexed probe on a gel.

The next data set deals with T2, Ndc10 DV (Kluyveromyces lactis, UniProt Q6CPM4 631-736).
T2 sequence: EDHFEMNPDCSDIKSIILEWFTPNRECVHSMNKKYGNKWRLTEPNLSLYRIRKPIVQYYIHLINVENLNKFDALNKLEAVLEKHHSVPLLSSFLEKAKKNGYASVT
Nature of the data set: EMSA.

The target in the next data set is T3, Ndc10 DI-II (Kluyveromyces lactis, UniProt Q6CPM4 1-403).
T3 sequence: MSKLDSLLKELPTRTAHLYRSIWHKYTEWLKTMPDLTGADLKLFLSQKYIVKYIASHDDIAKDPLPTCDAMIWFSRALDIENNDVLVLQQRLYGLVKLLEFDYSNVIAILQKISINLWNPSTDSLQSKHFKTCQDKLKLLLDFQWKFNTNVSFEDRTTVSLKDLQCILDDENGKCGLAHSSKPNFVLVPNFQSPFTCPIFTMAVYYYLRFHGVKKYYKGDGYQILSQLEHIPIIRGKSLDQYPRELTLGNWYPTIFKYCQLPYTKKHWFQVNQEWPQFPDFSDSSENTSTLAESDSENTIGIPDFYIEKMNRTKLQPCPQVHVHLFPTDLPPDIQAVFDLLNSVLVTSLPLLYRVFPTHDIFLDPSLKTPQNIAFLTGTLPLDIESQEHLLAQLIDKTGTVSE
Kind of data set: ITC.

In a further data set the target is T4, Ndc10 full-length (Kluyveromyces lactis, UniProt Q6CPM4 1-736).
T4 sequence: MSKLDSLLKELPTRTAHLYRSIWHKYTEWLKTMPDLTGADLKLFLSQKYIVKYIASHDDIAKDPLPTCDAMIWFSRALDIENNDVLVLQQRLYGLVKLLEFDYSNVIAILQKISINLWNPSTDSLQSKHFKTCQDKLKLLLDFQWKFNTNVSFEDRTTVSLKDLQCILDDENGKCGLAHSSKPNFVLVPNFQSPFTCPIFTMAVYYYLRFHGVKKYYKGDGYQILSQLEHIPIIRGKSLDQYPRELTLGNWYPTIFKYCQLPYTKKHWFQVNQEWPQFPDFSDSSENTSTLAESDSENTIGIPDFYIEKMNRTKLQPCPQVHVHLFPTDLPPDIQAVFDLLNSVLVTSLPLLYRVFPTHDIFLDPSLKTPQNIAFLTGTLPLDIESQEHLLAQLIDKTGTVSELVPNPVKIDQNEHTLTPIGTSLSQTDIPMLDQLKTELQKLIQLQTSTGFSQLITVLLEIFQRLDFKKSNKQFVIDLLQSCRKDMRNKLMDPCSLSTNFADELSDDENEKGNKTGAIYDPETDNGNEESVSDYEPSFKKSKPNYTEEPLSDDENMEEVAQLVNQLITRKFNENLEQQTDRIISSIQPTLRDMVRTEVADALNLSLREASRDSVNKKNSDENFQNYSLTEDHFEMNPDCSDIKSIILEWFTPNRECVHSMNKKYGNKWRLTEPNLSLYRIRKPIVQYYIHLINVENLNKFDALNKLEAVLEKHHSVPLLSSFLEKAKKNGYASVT
Nature of the data set: fluorescence anisotropy. In general terms: Polarisation of emitted light reports the rotation of a fluorescent probe.

For “K. lactis Ndc10 DI–III (residues 1–534), purified (domain or fragment)”, the stoichiometry N (as a rule, the number of molecules, sites or subunits per partner or assembly) in data set [1] was found to be 2.

B1: 30 bp CEN1 CDEIII (dsDNA)
DNA 1: TGCTTTATGTTTCCGAAAATTATTTTATTA
DNA 2: TAATAAAATAATTTTCGGAAACATAAAGCA
For the molecule B1, the binding result with Ndc10 DI-III is given as “binds”; with Ndc10 DV it was “no binding”; with Ndc10 DI-II it was “binds”; in the data set with Ndc10 full-length, “binds”.

These data come from PMC3252399.
